Laboratory results published in IntAct's records for PubMed 16000308.

B1: Melanoma-associated antigen D1 (Homo sapiens), Q9Y5V3 (parent)
chain: MAQKMDCGAGLLGFQAEASVEDSALLMQTLMEAIQISEAPPTNQATAAASPQSSQPPTANEMADIQVSAAAARPKSAFKVQNATTKGPNGVYDFSQAHNAKDVPNTQPKAAFKSQNATPKGPNAAYDFSQAATTGELAANKSEMAFKAQNATTKVGPNATYNFSQSLNANDLANSRPKTPFKAWNDTTKAPTADTQTQNVNQAKMATSQADIETDPGISEPDGATAQTSADGSQAQNLESRTIIRGKRTRKINNLNVEENSSGDQRRAPLAAGTWRSAPVPVTTQNPPGAPPNVLWQTPLAWQNPSGWQNQTARQTPPARQSPPARQTPPAWQNPVAWQNPVIWPNPVIWQNPVIWPNPIVWPGPVVWPNPLAWQNPPGWQTPPGWQTPPGWQGPPDWQGPPDWPLPPDWPLPPDWPLPTDWPLPPDWIPADWPIPPDWQNLRPSPNLRPSPNSRASQNPGAAQPRDVALLQERANKLVKYLMLKDYTKVPIKRSEMLRDIIREYTDVYPEIIERACFVLEKKFGIQLKEIDKEEHLYILISTPESLAGILGTTKDTPKLGLLLVILGVIFMNGNRASEAVLWEALRKMGLRPGVRHPLLGDLRKLLTYEFVKQKYLDYRRVPNSNPPEYEFLWGLRSYHETSKMKVLRFIAEVQKRDPRDWTAQFMEAADEALDALDAAAAEAEARAEARTRMGIGDEAVSGPWSWDDIEFELLTWDEEGDFGDPWSRIPFTFWARYHQNARSRFPQTFAGPIIGPGGTASANFAANFGAIGFFWVE
partner: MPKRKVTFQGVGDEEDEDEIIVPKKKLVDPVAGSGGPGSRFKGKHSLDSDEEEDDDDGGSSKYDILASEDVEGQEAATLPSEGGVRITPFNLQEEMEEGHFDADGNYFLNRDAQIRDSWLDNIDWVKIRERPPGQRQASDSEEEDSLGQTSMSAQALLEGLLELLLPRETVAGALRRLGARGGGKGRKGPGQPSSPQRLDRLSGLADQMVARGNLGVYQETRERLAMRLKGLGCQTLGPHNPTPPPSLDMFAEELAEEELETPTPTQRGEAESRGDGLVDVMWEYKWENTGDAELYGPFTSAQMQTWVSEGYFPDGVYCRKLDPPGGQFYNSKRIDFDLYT

Variants of: B1
Details: with cd2b2_human CD2BP2, O95400

Effect of a mutation on the interaction, by site and new letter:
W386: C disrupting interaction strength, K decreasing interaction strength, T disrupting interaction strength, P decreasing interaction strength, D disrupting interaction strength, I decreasing interaction strength, V disrupting interaction strength, H disrupting interaction strength, A disrupting interaction strength, M decreasing interaction strength, E disrupting interaction strength, G disrupting interaction strength, S decreasing interaction strength, N disrupting interaction strength
T388: E decreasing interaction strength, D decreasing interaction strength, C decreasing interaction strength
G385: P decreasing interaction strength, N disrupting interaction strength, Q disrupting interaction strength, M disrupting interaction strength, K disrupting interaction strength, W disrupting interaction strength, H disrupting interaction strength, R decreasing interaction strength, T disrupting interaction strength, E disrupting interaction strength, F disrupting interaction strength, L disrupting interaction strength, Y disrupting interaction strength, D disrupting interaction strength, C disrupting interaction strength, A disrupting interaction strength, S disrupting interaction strength, I disrupting interaction strength
Q387: Y disrupting interaction strength, E disrupting interaction strength, A decreasing interaction strength, C disrupting interaction strength, D disrupting interaction strength, W disrupting interaction strength
P384: W disrupting interaction strength, Y disrupting interaction strength
